Here are results for two proteins from publication PMC4487810.

Substrate in the data set: O=P(O)(O)CCO
As to the kind of experiment: purified protein. The note with it: O2 co-substrate.

Where [1] appears, read: enzyme saturated with Fe(II) (more than 1 equivalent).

Substitutions are numbered along the chain they refer to. Names and notes keep the numbering of the source.

As usually defined, the Km is the concentration of substrate that gives half-maximal velocity. By kcat is commonly meant the number of substrate molecules converted per active site and unit of time at saturation.

B1: 2-hydroxyethylphosphonate dioxygenase (HEPD) (Streptomyces viridochromogenes DSM 40736) (protein)
chain: MRIDPFKLAHWMNARKYTAAQTADLAGLPLDDLRRLLGDEANEPDPAAATALAEALSVEPSQLAADAHRNLTVVHKSAEEMHASRRPIQRDGIHFYNYYTLAAPEGRVAPVVLDILCPSDRLPALNNGHLEPAITVNLGPGDINGRWGEEITPQTWRVLHANHGGDRWITGDSYVEPSYCPHSYSLAGDAPARIVSYTAQSNISPLMTEANNWSTGAFEEALKALSGKVSAGSVLDLFLARRAHTRTSAAEAAGVPPADLEAALRSPASETGLTVLRTLGRALGFDYRVLLPADDQHDGVGKTWTTIEDSRRSRRTFGTYEAASMASAAHLPDLVGSFLRVDADGRGADLIDHAENHYVVTEGRLTLEWDGPDGPASVELEPDGSAWTGPFVRHRWHGTGTVLKFGSGAHLGYQDWLELTNTFEPAATLRRGRRDLAGWGYDN
For B1, under “Fe(II)”, the Km came to 8 ± 1 µM and the catalytic constant (kcat) was 0.3 ± 0.01 s⁻¹. Further, under “Fe(II), labelled compound”, the Km worked out at 10 ± 2 µM and the kcat turned out to be 0.31 ± 0.01 s⁻¹.

B2: 2-hydroxyethylphosphonate dioxygenase (HEPD) (Streptomyces viridochromogenes DSM 40736; E176H) (protein)
chain: B1 chain with E176H
Take B2: under setting [1], the Km stood at 23 ± 3 µM and the kcat is 0.38 ± 0.01 s⁻¹.
